# In the supplement of paper PMC7125110:
# ± gives the standard error. Variants at the floor of the assay were thinned out.
# B1: glmS ribozyme (parent)
# chain: AUAAAAGCGCCAGAACUACAGAAAUGUAGUUGACGAGGAGGAGGUUUAUCGAAUUUUCGGCGGAUGCCUCCAAA
# What was measured:
# Details in all cases: with glucosamine-6-phosphate
# glucosamine-6-phosphate [1] = variants of: B1; test: self-cleavage kobs at 40 uM GlcN6P; higher = faster cleavage; RNA array
# In short: (§1)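 Glucosamine-6-phosphate, from 40 μM to 10 mM in HEPES/KCl/Mg(OAc)2 buffer, was flowed over sequenced MiSeq chips carrying barcoded ribozyme variants transcribed in situ by E. coli RNA polymerase. A hybridised Cy3 probe tracked the variants at 37 °C as tiles were imaged over ~14 h. kobs, kcat and KM were obtained by fitting normalised per-tile medians to exponential decays and then applying weighted Michaelis–Menten fits across concentrations.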
# glucosamine-6-phosphate [2] = variants of: B1; test: self-cleavage kobs at 160 uM GlcN6P; higher = faster cleavage; RNA array
# In short: as §1
# glucosamine-6-phosphate [3] = variants of: B1; test: self-cleavage kobs at 640 uM GlcN6P; higher = faster cleavage; RNA array
# In short: as §1
# glucosamine-6-phosphate [4] = variants of: B1; test: self-cleavage kobs at 2500 uM GlcN6P; higher = faster cleavage; RNA array
# In short: as §1
# glucosamine-6-phosphate [5] = variants of: B1; test: self-cleavage kobs at 10000 uM GlcN6P; higher = faster cleavage; RNA array
# In short: as §1
Variant,self-cleavage kobs at 40 uM GlcN6P (glucosamine-6-phosphate [1]) [s⁻¹],self-cleavage kobs at 160 uM GlcN6P (glucosamine-6-phosphate [2]) [s⁻¹],self-cleavage kobs at 640 uM GlcN6P (glucosamine-6-phosphate [3]) [s⁻¹],self-cleavage kobs at 2500 uM GlcN6P (glucosamine-6-phosphate [4]) [s⁻¹],self-cleavage kobs at 10000 uM GlcN6P (glucosamine-6-phosphate [5]) [s⁻¹]
U31G A39G,0.0004 ± 6e-05,0.00122 ± 0.00027,0.00522 ± 0.0013,0.0142 ± 0.0046,
U30A A39U G51A A64G,< 1e-05,,,,< 1e-05
A36C A39G G66A,< 1e-05,,,,< 1e-05
A14G C34G,< 1e-05,< 1e-05,,,< 1e-05
G32A G37A C50G C67U,6.41e-05 ± 2.1e-05,,,,
A6G A36G,< 1e-05,,< 1e-05,< 1e-05,< 1e-05
A12U A53U,0.00177 ± 0.00024,0.00421 ± 0.00071,0.0159 ± 0.0029,0.0274 ± 0.007,0.112 ± 0.036
G29C G51U U55G,< 1e-05,,,,< 1e-05
G37A G38U C50G C67U,8.1e-05 ± 3.5e-05,,,,0.000315 ± 8.1e-05
A12U G29A G41A C50A C67A,< 1e-05,,,,
G62A A64U,< 1e-05,,< 1e-05,,< 1e-05
G29U U30G C34U,< 1e-05,,,,< 1e-05
C16G C70U,0.000111 ± 1.4e-05,0.000359 ± 6.2e-05,0.000455 ± 8e-05,0.000561 ± 9e-05,0.00521 ± 0.001
A12U A39U,0.00122 ± 0.00014,0.0029 ± 0.00074,0.0129 ± 0.0047,0.00925 ± 0.0022,0.0541 ± 0.013
U47A U56A,0.00024 ± 5.3e-05,0.000539 ± 0.0001,0.00196 ± 0.00027,0.00548 ± 0.0015,0.0235 ± 0.0091
U49A G62C,< 1e-05,,,,< 1e-05
G62C U65C,< 1e-05,< 1e-05,< 1e-05,< 1e-05,
A64U C68A,< 1e-05,,< 1e-05,,< 1e-05
A6G A14C C34A C68A,< 1e-05,,,,
A42C A64G,< 1e-05,< 1e-05,< 1e-05,,
G13C U47C,< 1e-05,< 1e-05,,,
G44U A52C,< 1e-05,< 1e-05,< 1e-05,< 1e-05,< 1e-05
G44U C61G,< 1e-05,< 1e-05,< 1e-05,< 1e-05,< 1e-05

Variant,self-cleavage kobs at 40 uM GlcN6P (glucosamine-6-phosphate [1]) [s⁻¹],self-cleavage kobs at 160 uM GlcN6P (glucosamine-6-phosphate [2]) [s⁻¹],self-cleavage kobs at 640 uM GlcN6P (glucosamine-6-phosphate [3]) [s⁻¹],self-cleavage kobs at 2500 uM GlcN6P (glucosamine-6-phosphate [4]) [s⁻¹],self-cleavage kobs at 10000 uM GlcN6P (glucosamine-6-phosphate [5]) [s⁻¹]
G35U G60C,< 1e-05,< 1e-05,< 1e-05,< 1e-05,< 1e-05
C8U C50U C58G C61U C67U C68G,0.000528 ± 0.0001,,,,0.00105 ± 0.00018
A36U G41U C70G,< 1e-05,,,,
U31A C61U,< 1e-05,< 1e-05,< 1e-05,,
A48C A64C,< 1e-05,< 1e-05,,< 1e-05,
C11A G59A G60A A64U,< 1e-05,,,,
G43U A48C,< 1e-05,< 1e-05,< 1e-05,< 1e-05,< 1e-05
A42G G62A,< 1e-05,< 1e-05,< 1e-05,< 1e-05,< 1e-05
G13A U49A A64G,< 1e-05,< 1e-05,< 1e-05,,
G9C G29C C67U,< 1e-05,,< 1e-05,,< 1e-05
G35C C58A C71A,< 1e-05,,,,< 1e-05
C11A G32A A39U,< 1e-05,,< 1e-05,,
C34G A36G G37A A42U G51C C67U,< 1e-05,,,< 1e-05,
G32C G44C,< 1e-05,< 1e-05,,< 1e-05,< 1e-05
C16U G32C G38C,< 1e-05,,,,
A15G A36G G44U,< 1e-05,,,< 1e-05,
G40A U46G,4.29e-05 ± 1.2e-05,,,0.000841 ± 0.00023,0.00152 ± 0.00029
G9U G51U,< 1e-05,< 1e-05,< 1e-05,,< 1e-05
A39G U45C C67U,0.000136 ± 5.9e-05,,,,0.00434 ± 0.0011
C8A A53G G63A,< 1e-05,,< 1e-05,,
G40U G44C,< 1e-05,< 1e-05,< 1e-05,,
G40C A64C,< 1e-05,< 1e-05,,,
